This experiment concerns the target MutSα (MSH2–MSH6) (human (endogenous in HCT-116), UniProt P43246;P52701). Nature of the experiment: pull-down.

Sequence of MutSα (MSH2–MSH6) (P43246 whole entry, chain 1 of 2): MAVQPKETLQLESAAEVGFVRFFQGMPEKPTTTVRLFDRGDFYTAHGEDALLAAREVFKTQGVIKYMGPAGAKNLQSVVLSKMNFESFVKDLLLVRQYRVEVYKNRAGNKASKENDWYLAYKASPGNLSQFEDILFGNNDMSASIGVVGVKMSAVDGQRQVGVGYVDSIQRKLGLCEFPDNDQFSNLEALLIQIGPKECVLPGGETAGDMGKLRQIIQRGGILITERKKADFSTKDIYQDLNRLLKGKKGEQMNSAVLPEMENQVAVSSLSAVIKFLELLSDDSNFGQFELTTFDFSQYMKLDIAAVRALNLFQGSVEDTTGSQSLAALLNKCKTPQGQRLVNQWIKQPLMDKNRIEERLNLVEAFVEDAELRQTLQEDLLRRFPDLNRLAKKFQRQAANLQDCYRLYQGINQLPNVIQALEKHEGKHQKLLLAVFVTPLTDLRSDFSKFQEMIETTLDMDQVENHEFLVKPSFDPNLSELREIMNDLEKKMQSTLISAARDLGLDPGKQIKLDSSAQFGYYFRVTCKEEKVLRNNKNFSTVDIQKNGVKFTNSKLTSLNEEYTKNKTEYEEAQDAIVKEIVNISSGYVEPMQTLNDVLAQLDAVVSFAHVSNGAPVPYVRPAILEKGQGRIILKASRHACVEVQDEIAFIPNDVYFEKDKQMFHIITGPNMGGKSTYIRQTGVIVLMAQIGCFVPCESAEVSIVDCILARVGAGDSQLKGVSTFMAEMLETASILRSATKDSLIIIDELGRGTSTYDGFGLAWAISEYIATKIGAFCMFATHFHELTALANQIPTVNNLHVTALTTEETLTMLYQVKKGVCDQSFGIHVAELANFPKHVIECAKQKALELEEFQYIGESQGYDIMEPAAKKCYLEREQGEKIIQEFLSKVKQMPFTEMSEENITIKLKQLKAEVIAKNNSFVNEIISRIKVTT
Sequence of MutSα (MSH2–MSH6) (P52701 whole entry, chain 2 of 2): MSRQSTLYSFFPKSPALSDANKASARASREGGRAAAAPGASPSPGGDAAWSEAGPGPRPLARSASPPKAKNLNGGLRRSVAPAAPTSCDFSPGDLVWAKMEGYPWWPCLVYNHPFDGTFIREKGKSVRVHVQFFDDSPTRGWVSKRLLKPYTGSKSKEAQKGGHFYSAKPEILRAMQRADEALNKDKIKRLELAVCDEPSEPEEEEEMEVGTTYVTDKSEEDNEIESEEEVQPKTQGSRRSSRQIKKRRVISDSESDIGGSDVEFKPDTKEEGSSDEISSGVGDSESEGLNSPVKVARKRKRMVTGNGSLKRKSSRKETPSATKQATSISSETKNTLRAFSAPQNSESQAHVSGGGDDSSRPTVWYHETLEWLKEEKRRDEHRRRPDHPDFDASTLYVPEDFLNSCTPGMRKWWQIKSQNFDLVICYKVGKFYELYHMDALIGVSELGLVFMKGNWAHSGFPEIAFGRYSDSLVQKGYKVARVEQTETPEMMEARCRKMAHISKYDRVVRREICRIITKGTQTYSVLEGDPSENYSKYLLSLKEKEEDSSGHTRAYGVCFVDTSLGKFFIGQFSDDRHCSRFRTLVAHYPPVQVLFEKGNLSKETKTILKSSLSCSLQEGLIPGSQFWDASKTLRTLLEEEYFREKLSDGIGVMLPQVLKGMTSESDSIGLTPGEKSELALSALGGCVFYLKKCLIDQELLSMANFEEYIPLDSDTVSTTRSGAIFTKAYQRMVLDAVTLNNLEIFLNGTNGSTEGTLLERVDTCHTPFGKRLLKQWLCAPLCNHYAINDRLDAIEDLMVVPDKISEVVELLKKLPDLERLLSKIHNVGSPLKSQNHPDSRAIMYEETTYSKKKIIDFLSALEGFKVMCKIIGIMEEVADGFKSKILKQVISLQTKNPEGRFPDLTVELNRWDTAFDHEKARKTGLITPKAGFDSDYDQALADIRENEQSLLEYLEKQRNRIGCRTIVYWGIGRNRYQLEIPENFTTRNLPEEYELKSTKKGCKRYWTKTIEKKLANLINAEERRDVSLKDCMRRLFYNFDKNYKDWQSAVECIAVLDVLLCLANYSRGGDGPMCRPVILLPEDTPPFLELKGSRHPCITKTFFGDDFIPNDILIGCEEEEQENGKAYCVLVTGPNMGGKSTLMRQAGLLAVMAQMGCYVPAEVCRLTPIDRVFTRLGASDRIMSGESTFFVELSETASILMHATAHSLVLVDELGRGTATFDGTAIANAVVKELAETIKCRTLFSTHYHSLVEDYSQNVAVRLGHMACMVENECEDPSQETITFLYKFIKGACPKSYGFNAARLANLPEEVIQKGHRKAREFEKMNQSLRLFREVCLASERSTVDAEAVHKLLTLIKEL

B1: MutLα^(MLH1 A128P) (complex)
chain 1: MSFVAGVIRRLDETVVNRIAAGEVIQRPANAIKEMIENCLDAKSTSIQVIVKEGGLKLIQIQDNGTGIRKEDLDIVCERFTTSKLQSFEDLASISTYGFRGEALASISHVAHVTITTKTADGKCAYRPSYSDGKLKAPPKPCAGNQGTQITVEDLFYNIATRRKALKNPSEEYGKILEVVGRYSVHNAGISFSVKKQGETVADVRTLPNASTVDNIRSIFGNAVSRELIEIGCEDKTLAFKMNGYISNANYSVKKCIFLLFINHRLVESTSLRKAIETVYAAYLPKNTHPFLYLSLEISPQNVDVNVHPTKHEVHFLHEESILERVQQHIESKLLGSNSSRMYFTQTLLPGLAGPSGEMVKSTTSLTSSSTSGSSDKVYAHQMVRTDSREQKLDAFLQPLSKPLSSQPQAIVTEDKTDISSGRARQQDEEMLELPAPAEVAAKNQSLEGDTTKGTSEMSEKRGPTSSNPRKRHREDSDVEMVEDDSRKEMTAACTPRRRIINLTSVLSLQEEINEQGHEVLREMLHNHSFVGCVNPQWALAQHQTKLYLLNTTKLSEELFYQILIYDFANFGVLRLSEPAPLFDLAMLALDSPESGWTEEDGPKEGLAEYIVEFLKKKAEMLADYFSLEIDEEGNLIGLPLLIDNYVPPLEGLPIFILRLATEVNWDEEKECFESLSKECAMFYSIRKQYISEESTLSGQQSEVPGSIPNSWKWTVEHIVYKALRSHILPPKHFTEDGNILQLANLPDLYKVFERC
chain 2: MERAESSSTEPAKAIKPIDRKSVHQICSGQVVLSLSTAVKELVENSLDAGATNIDLKLKDYGVDLIEVSDNGCGVEEENFEGLTLKHHTSKIQEFADLTQVETFGFRGEALSSLCALSDVTISTCHASAKVGTRLMFDHNGKIIQKTPYPRPRGTTVSVQQLFSTLPVRHKEFQRNIKKEYAKMVQVLHAYCIISAGIRVSCTNQLGQGKRQPVVCTGGSPSIKENIGSVFGQKQLQSLIPFVQLPPSDSVCEEYGLSCSDALHNLFYISGFISQCTHGVGRSSTDRQFFFINRRPCDPAKVCRLVNEVYHMYNRHQYPFVVLNISVDSECVDINVTPDKRQILLQEEKLLLAVLKTSLIGMFDSDVNKLNVSQQPLLDVEGNLIKMHAADLEKPMVEKQDQSPSLRTGEEKKDVSISRLREAFSLRHTTENKPHSPKTPEPRRSPLGQKRGMLSSSTSGAISDKGVLRPQKEAVSSSHGPSDPTDRAEVEKDSGHGSTSVDSEGFSIPDTGSHCSSEYAASSPGDRGSQEHVDSQEKAPKTDDSFSDVDCHSNQEDTGCKFRVLPQPTNLATPNTKRFKKEEILSSSDICQKLVNTQDMSASQVDVAVKINKKVVPLDFSMSSLAKRIKQLHHEAQQSEGEQNYRKFRAKICPGENQAAEDELRKEISKTMFAEMEIIGQFNLGFIITKLNEDIFIVDQHATDEKYNFEMLQQHTVLQGQRLIAPQTLNLTAVNEAVLIENLEIFRKNGFDFVIDENAPVTERAKLISLPTSKNWTFGPQDVDELIFMLSDSPGVMCRPSRVKQMFASRACRKSVMIGTALNTSEMKKLITHMGEMDHPWNCPHGRPTMRHIANLGVISQN
Regarding B1, the “fold decrease of binding against wild-type MutLα” value was roughly 5 fold.

Source of the values: article PMC1747184 (Nucleic Acids Research, 2006).
